# Publication PMC8748714 (2022)
# Where a chain is given by its changes, count along the chain named. Numbers in names are those of the source. Read-outs that look alike come from different tables or passages of the source.
# B1: wild-type cMyc-GLP-1R, P43220 K197A (protein)
# chain: RPQGATVSLWETVQKWREYRRQCQRSLTEDPPPATDLFCNRTFDEYACWPDGEPGSFVNVSCPWYLPWASSVPQGHVYRFCTAEGLWLQKDNSSLPWRDLSECEESKRGERSSPEEQLLFLYIIYTVGYALSFSALVIASAILLGFRHLHCTRNYIHLNLFASFILRALSVFIADAALKWMYSTAAQQHQWDGLLSYQDSLSCRLVFLLMQYCVAANYYWLLVEGVYLYTLLAFSVLSEQWIFRLYVSIGWGVPLLFVVPWGIVKYLYEDEGCWTRNSNMNYWLIIRLPILFAIGVNFLIFVRVICIVVSKLKANLMCKTDIKCRLAKSTLTLIPLLGTHEVIFAFVMDEHARGTLRFIKLFTELSFTSFQGLMVAILYCFVNNEVQLEFRKSWERWRLEHLHIQRDSSMKPLKCPTSSLSSGATAGSSMYTATCQASCS
# B2: wild-type cMyc-GLP-1R, P43220 R190A (protein)
# chain: B1 chain with R167A, A174K
# B3: wild-type cMyc-GLP-1R, P43220 W297A (protein)
# chain: B1 chain with A174K, W274A
# Legend:
# [1] = molecular target: cMyc-GLP-1R Y148A (human) (UniProt P43220)
# exendin-P5 [2] = assay: radioligand competition binding on whole cells; settings: parent: est. 0; read off a plot
# exendin-P5 [3] = assay: radioligand competition binding on whole cells; settings: parent: est. 0; read off a plot; remark: listed apart in the source
# [4] = molecular target: cMyc-GLP-1R Y148A (human) (UniProt P43220); remark: listed apart in the source
# [5] = molecular target: GLP-1R S206A (Homo sapiens)
# [6] = molecular target: GLP-1R Q210A (Homo sapiens)
# [7] = molecular target: GLP-1R K202A (Homo sapiens)
# [8] = molecular target: cMyc-GLP-1R K197A (human) (UniProt P43220)
# [9] = molecular target: GLP-1R Y145A (Homo sapiens)
# [10] = molecular target: cMyc-GLP-1R Y152A (human) (UniProt P43220)
# [11] = molecular target: GLP-1R Y205A (Homo sapiens)
# [12] = molecular target: GLP-1R V194A (Homo sapiens)
# [13] = molecular target: GLP-1R M204A (Homo sapiens)
# [14] = molecular target: GLP-1R P137A (Homo sapiens)
# [15] = molecular target: GLP-1R S193A (Homo sapiens)
# [16] = molecular target: GLP-1R L142A (Homo sapiens)
# [17] = molecular target: GLP-1R L201A (Homo sapiens)
# [18] = molecular target: GLP-1R Q211A (Homo sapiens)
# [19] = molecular target: GLP-1R H212A (Homo sapiens)
# [20] = molecular target: cMyc-GLP-1R R190A (human) (UniProt P43220)
# [21] = molecular target: GLP-1R L144A (Homo sapiens)
# [22] = molecular target: wild-type cMyc-GLP-1R (human) (UniProt P43220)
# [23] = molecular target: GLP-1R L141A (Homo sapiens)
# [24] = molecular target: GLP-1R E138A (Homo sapiens)
# [25] = molecular target: GLP-1R D198A (Homo sapiens)
# exendin-4, P26349 = assay: radioligand competition binding on whole cells; settings: chain shown with the change;; parent: est. 0; read off a plot
molecule,measurement,setting,value
exendin-P5,IC50,GLP-1R K202A,170 nM
same,IC50,GLP-1R S193A,75.9 nM
same,IC50,GLP-1R L141A,102 nM
same,IC50,GLP-1R D198A,191 nM
same,IC50,GLP-1R E138A,60.3 nM
same,IC50,GLP-1R Q211A,240 nM
same,IC50,GLP-1R S206A,269 nM
same,IC50,GLP-1R Q210A,501 nM
same,IC50,GLP-1R L201A,251 nM
same,IC50,GLP-1R Y205A,69.2 nM
same,IC50,[1],135 nM
same,IC50,GLP-1R L144A,257 nM
same,IC50,GLP-1R M204A,67.6 nM
same,IC50,GLP-1R H212A,282 nM
same,IC50,GLP-1R Y145A,46.8 nM
same,IC50,GLP-1R V194A,182 nM
same,IC50,GLP-1R P137A,437 nM
same,IC50,GLP-1R L142A,537 nM
wild-type cMyc-GLP-1R (from UniProt P43220) W297A,log10 ratio,exendin-P5 [2],-1.3 pIC50 ΔWT
same,log10 ratio,exendin-P5 [3],-1.2 pIC50 ΔWT
wild-type cMyc-GLP-1R (from UniProt P43220) E364A,log10 ratio,exendin-P5 [2],-0.95 pIC50 ΔWT
same,log10 ratio,exendin-P5 [3],-1 pIC50 ΔWT
wild-type cMyc-GLP-1R (from UniProt P43220) E387A,log10 ratio,exendin-P5 [2],-1.1 pIC50 ΔWT
same,log10 ratio,exendin-P5 [3],-1.1 pIC50 ΔWT
exendin-4 (from UniProt P26349 48-87),IC50,[4],7.76 nM
same,IC50,[5],2.19 nM
same,IC50,[6],2.09 nM
same,IC50,[7],1.91 nM
same,IC50,[8],25.1 nM
same,IC50,[9],0.617 nM
same,IC50,[10],38 nM
same,IC50,[11],8.91 nM
same,IC50,[12],11.7 nM
same,IC50,[13],17.8 nM
same,IC50,[14],3.89 nM
same,IC50,[15],1.38 nM
same,IC50,[16],0.692 nM
same,IC50,[17],3.47 nM
same,IC50,[18],4.37 nM
same,IC50,[19],0.479 nM
same,IC50,[20],407 nM
same,IC50,[21],0.741 nM
same,IC50,[22],0.891 nM
same,IC50,[23],4.9 nM
same,IC50,[24],0.661 nM
same,IC50,[25],162 nM
B1,log10 ratio,"exendin-4, P26349",-1.5 pIC50 ΔWT
B2,log10 ratio,"exendin-4, P26349",-2.6 pIC50 ΔWT
B3,log10 ratio,"exendin-4, P26349",-1.5 pIC50 ΔWT
